[ ]: non-standard residue; d: D form. Sta = CC(C)C[C@H](N)[C@@H](O)CC(=O)O
Target: β-secretase (Homo sapiens, UniProt P56817)
Assay: β-secretase inhibition, assay not specified
Format: biochemical

Sequence of β-secretase (P56817 46-501): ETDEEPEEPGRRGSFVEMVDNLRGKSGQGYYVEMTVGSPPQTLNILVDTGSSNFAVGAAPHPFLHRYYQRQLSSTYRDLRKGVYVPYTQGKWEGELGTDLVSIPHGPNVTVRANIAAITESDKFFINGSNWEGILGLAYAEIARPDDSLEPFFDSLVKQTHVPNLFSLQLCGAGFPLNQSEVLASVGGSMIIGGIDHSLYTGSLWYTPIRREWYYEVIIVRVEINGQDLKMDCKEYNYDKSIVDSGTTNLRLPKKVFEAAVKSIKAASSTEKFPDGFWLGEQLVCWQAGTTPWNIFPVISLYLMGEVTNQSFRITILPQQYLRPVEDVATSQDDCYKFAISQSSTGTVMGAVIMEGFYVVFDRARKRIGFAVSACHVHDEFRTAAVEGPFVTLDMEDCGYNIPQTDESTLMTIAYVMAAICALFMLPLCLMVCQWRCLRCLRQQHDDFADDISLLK

NH2-KTEEISEVN[sta]VAEF-COOH (H-KTEEISEVN[Sta]VAEF-OH) [P10-P4′staD→V]
inhibitor of the enzyme (in words): reasonably potent inhibitor

— patent publication US7456007B1, “β-secretase enzyme compositions and methods” (Elan Pharmaceuticals, Inc., priority 1998, dated 2008)
